Measurements published in patent US20020107196A1.

Target: human CXCR4 receptor (human)
Assay: cell-based or functional assay

stromal cell derived factor-1α (SDF-1α) (ligand), sequence (chain): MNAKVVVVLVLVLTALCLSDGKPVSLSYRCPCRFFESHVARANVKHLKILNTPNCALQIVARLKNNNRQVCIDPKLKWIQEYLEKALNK

- EC50 of HUVEC migration (Transwell chemotaxis): 10 to 20 nM
- elevation of [Ca+2]i in HUVEC (fura-2 fluorescence); concentration of maximal response: 100 nM
- percent migration of input EC (Transwell chemotaxis): 40%
Substance: stromal cell derived factor-1α (SDF-1α) (ligand)
